In assay [1] the target is 'hybrid' Vγ9+Vδ1+ γδTCR (TCR #6 γ-chain paired with an irrelevant Vδ1+ chain), soluble ectodomain (human). Nature of the assay: SPR, γδTCR ectodomain immobilized on streptavidin chip, soluble BTN2A1 200-3.1 µM, KD derived at equilibrium. (Surface plasmon resonance follows binding to a sensor surface in real time, without labels.)
Assay [2] shares this target. Description: surface plasmon resonance, binding at equilibrium (saturation plot with Scatchard inset, Expt. 1 and Expt. 2), soluble BTN2A1 200-3.1 µM over immobilized hybrid TCR.
Assay [3] has as its target T1, human BTN3A1, isoform 1, on cells (human, UniProt O00481 30-513).
T1 construct: whole, on cells
Nature of the assay: FRET between C-terminal CFP/YFP tags on co-transfected NIH-3T3 cells, flow cytometry (FIG. 5D, FIG. 20A). On the technique in general: In flow cytometry, cells or beads pass a laser one at a time.
Description: FRET was detected in a compensated yellow 670/30 channel. […] The frequency of cells identified as FRET⁺ was examined on gated CFP⁺YFP⁺NIH-3T3 cells for dual tranfectants, and either CFP⁺ or YFP⁺ for single transfectants.

For assay [4], the system named is Vγ9Vδ2 cells. Nature of the assay: Flow cytometry: CD25 on Vγ9Vδ2 cells without phosphoantigen or APCs. In kind it is cell-based, human. Particulars: no addition of APCs or phosphoantigen; listed as 253. From the text:
Vγ9Vδ2 cells were stained for CD3, Vδ2, CD25 and live dead viability dye as previously described and analysed on a Canto flow cytometer (BD). Cells were gated on lymphocytes, single cells, live cells, CD3+ Vδ2+, and activation determined based on CD25 expression.

Assay [5] concerns LM-MEL-62 and LM-MEL-75 melanoma cells. Description: Tumor killing/inhibition assay: γδ T cells with melanoma cells 2:1, MTS and CD25. In kind it is cell-based, human. Particulars: γδ T cells : melanoma cells 2:1, three days, antibody 10 ug/ml. How it is done:
In the following experiments, γδ T cells were enriched by MACS using PE-Cy7-conjugated anti-γδTCR followed by anti-phycoerythrin-mediated magnetic bead purification (Miltenyi Biotec). After enrichment CD3^+ Vδ2^+γδ T cells were further purified by sorting using an Aria III (BD). […] LM-MEL-62 and LM-MEL-75 melanoma cells were plated out 1×10^4 per well in a 96 well flat-bottom plate In RPMI1640 media supplemented with 10% FBS and left to adhere overnight. […] All conditions were repeated in triplicate. Cells were incubated at 37 degrees and on day 3 Vd2+ cells were acquired by flow cytometry. Live cells were gated and activation determined by analysis of CD25 expression. Melanoma cell viability was determined by MTS assay. MTS reagent was added to RPMI media at a 1:5 ratio and 100 ul added per well. Cells were incubated at 37 degrees for 30 minutes and the plate was read on a Spectrostar nano plate reader at 490 nm. […] Cultures were performed with γδ T cells and melanoma cells (LM-MEL-75 or LM-MEL-62) in a 2:1 ratio.

Assay [6] has as its system γδ T cells. Nature of the assay: Identification of BTN2A1 agonistic antibodies: CD25 and interferon γ of expanded γδ T cells. In kind it is cell-based, human. As to conditions: 10 μg/ml antibody overnight, vs isotype control BM4. How it is done:
In some experiments γδ T cells were enriched by MACS using PE-Cy7-conjugated anti-γδTCR followed by anti-phycoerythrin-mediated magnetic bead purification (Miltenyi Biotec). After enrichment CD3+Vδ2+ γδ T cells were further purified by sorting using an Aria III (BD). Enriched γδ T cells were stimulated in vitro for 48 h with plate-bound anti-CD3ε (OKT3, 10 ug/ml, Bio-X-Cell), soluble anti-CD28 (CD28.2, 1 ug/ml, BD Pharmingen), phytohemagglutinin (0.5 μg/ml, Sigma), IL-15 (50 ng/ml), and recombinant human IL-2 (100 U/ml, PeproTech), followed by maintenance with IL-2 and IL-15 for 14-21 d. Cells were cultured in complete medium consisting of a 50:50 (v/v) mixture of RPMI-1640 and AIM-V (Invitrogen) supplemented with 10% (v/v) FCS (JRH Biosciences), penicillin (100 U/ml), streptomycin (100 μg/ml), Glutamax (2 mM), sodium pyruvate (1 mM), nonessential amino acids (0.1 mM), and HEPES buffer (15 mM), pH 7.2-7.5 (all from Invitrogen Life Technologies), plus 50 μM 2-mercaptoethanol (Sigma-Aldrich).
The inventors screened the panel of antibodies specific for BTN2A1, as described above, to identify those able to agonise BTN2A1. The inventors assessed the ability of anti-BTN2A1 antibodies to activate γδ T cells. The inventors assessed upregulation of CD25 on the surface of previously expanded γδ T cells following culturing the cells with 10 μg/ml anti-BTN2A1 antibodies or isotype control antibody (BM4) overnight.
The inventors additionally measured levels of interferon γ secreted by γδ T cells following culture in the presence of 10 μg/ml anti-BTN2A1 antibodies or isotype control antibody (BM4) overnight. Interferon γ secretion is another indicator of TCR-dependent activation.

For assay [7], the system named is Vγ9Vδ2 cells. Nature of the assay: Luminex (Vγ9Vδ2): cytokine/chemokine secretion by pre-expanded Vγ9Vδ2 cells.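 Note: Vγ9Vδ2 cells purified from PBMC, activated 48 h with CD3 and CD28 plus IL-2, expanded 14 days in IL-2, then thawed and rested overnight in IL-2.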 In kind it is cell-based, human.
Description: Briefly, Vγ9Vδ2 cells were isolated from 1 healthy donor (Red Cross Australia) and 1 cancer patient derived PBMC using TCRγ/δ+ T Cell Isolation Kit (Miltenyi). Cells were stimulated for 48 hours in TCRPMI supplemented with 100u/ml IL-2, CD3 (10 μg/ml) and CD28 (1 μg/ml). Cells were washed and grown for 14 days in TCRPMI supplemented with 100u/ml IL-2 at 37 degrees C. and 5% CO2, and then frozen down. […] Vγ9Vδ2 were defrosted and rested overnight in TCRPMI supplemented with 50u/ml IL-2 at 37 degrees C. and 5% CO2. […] All samples were run with appropriate controls and standards.
For assay [8], the target named is T2, human BTN2A2, isoform 1 (human, UniProt Q8WVV5 33-523).
T2 construct: whole, on cells
T2 sequence (looked up): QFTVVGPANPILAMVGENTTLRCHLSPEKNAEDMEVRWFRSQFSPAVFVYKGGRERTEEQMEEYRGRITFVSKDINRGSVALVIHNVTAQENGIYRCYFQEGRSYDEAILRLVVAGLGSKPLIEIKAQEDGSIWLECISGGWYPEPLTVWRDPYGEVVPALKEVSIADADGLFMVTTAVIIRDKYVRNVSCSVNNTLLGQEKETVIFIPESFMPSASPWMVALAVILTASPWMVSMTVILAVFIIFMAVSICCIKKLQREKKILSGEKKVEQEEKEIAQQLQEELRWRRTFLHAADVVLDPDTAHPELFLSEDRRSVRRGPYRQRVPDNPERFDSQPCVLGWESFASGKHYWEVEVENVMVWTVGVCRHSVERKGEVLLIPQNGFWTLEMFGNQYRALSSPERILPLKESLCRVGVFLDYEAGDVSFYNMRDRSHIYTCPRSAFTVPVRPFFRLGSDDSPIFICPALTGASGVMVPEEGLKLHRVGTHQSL
Description: told in the legend of FIG. 24; data in FIG. 11 (ELISA, transfected cells). Background: An ELISA detects its analyte on a solid surface through an enzyme-linked reagent.
Description: Purified recombinant proteins (0.2-20 μg/ml) were immobilized in microplate wells in PBS buffer overnight at 4° C. Non-specific binding was then blocked by incubation in PBS containing 0.05% tween 20 plus 5% skim milk powder or 0.5% (w/v) bovine serum albumin (BSA). The wells were then incubated for 60 minutes at room temperature in the presence of antibodies at 2-5 μg/mL in PBS/0.05% tween-20/2% skim milk powder or 0.5% BSA, followed by washing in PBS/0.05% tween-20. Plates were then incubated with HRP-labelled sheep anti-mouse IgG secondary antibody (Chemicon), or goat anti-mouse IgG secondary antibody (Millipore) followed by detection using 3,3′,5,5′-tetramethylbenzidine substrate (Sigma) and absorbance was measured at 450 nm using a plate reader.

Setting [9] is: γδT cells from a healthy donor, 16 hrs, antibodies 10 μg/ml, Zoledronic acid 4 μM, HMBPP 0.5 ng/ml, duplicates, 0 set to 0.1.
The mark [10] stands for this setting: γδT cells from a healthy donor, 16 hrs, antibodies 10 μg/ml, Zoledronic acid 4 μM, HMBPP 0.5 ng/ml, duplicates, 0 set to 0.1, listed as 253.
The mark [11] stands for this setting: γδT cells from patient 1 (melanoma patient), 16 hrs, antibodies 10 μg/ml, Zoledronic acid 4 μM, HMBPP 0.5 ng/ml, duplicates, 0 set to 0.1.
The mark [12] stands for this setting: γδT cells from patient 1 (melanoma patient), 16 hrs, antibodies 10 μg/ml, Zoledronic acid 4 μM, HMBPP 0.5 ng/ml, duplicates, 0 set to 0.1, listed as 253.

Values joined by “and” are separate entries in the source; they are usually repeats but may differ in a detail not shown here. Equal values may be shown once. “Also recorded” adds a separate entry of the source.

Sequence of 'hybrid' Vγ9+Vδ1+ γδTCR (TCR #6 γ-chain paired with an irrelevant Vδ1+ chain), soluble ectodomain (human) (TCR gamma, as listed by the source): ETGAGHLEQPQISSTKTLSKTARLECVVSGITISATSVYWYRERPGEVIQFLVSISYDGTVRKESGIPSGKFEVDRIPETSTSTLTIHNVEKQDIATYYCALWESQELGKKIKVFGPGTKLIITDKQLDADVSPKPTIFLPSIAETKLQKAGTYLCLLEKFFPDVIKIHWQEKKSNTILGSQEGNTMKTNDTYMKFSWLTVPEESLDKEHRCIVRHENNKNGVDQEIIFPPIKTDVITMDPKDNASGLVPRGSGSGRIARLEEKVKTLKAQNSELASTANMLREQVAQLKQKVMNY
T1 sequence (O00481 30-513 limits assumed): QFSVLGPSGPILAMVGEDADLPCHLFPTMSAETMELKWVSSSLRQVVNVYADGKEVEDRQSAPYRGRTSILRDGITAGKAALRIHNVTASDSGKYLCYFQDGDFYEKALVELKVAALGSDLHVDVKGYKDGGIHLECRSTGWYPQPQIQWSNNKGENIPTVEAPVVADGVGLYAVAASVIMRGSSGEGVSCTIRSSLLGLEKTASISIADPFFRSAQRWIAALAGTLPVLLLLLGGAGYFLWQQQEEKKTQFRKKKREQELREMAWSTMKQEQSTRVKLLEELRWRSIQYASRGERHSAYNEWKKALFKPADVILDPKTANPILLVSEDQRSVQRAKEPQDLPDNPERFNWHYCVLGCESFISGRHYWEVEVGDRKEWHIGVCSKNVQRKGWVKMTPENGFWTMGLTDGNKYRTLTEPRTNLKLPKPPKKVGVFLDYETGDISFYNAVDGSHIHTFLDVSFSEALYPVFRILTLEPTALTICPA

As to “soluble BTN2A1 ectodomain (IgV and IgC domains; Gln29 to Ser245) with C-terminal linker, Avi-tag and His6-tag (ligand)”, the Kd stood at 50 µM in assay [1] and 50.4 µM in assay [2].

B1: human BTNL8, isoform 1, on cells (ligand, UniProt Q6UX41 18-500, looked up)
chain: QWQVFGPDKPVQALVGEDAAFSCFLSPKTNAEAMEVRFFRGQFSSVVHLYRDGKDQPFMQMPQYQGRTKLVKDSIAEGRISLRLENITVLDAGLYGCRISSQSYYQKAIWELQVSALGSVPLISITGYVDRDIQLLCQSSGWFPRPTAKWKGPQGQDLSTDSRTNRDMHGLFDVEISLTVQENAGSISCSMRHAHLSREVESRVQIGDTFFEPISWHLATKVLGILCCGLFFGIVGLKIFFSKFQWKIQAELDWRRKHGQAELRDARKHAVEVTLDPETAHPKLCVSDLKTVTHRKAPQEVPHSEKRFTRKSVVASQSFQAGKHYWEVDGGHNKRWRVGVCRDDVDRRKEYVTLSPDHGYWVLRLNGEHLYFTLNPRFISVFPRTPPTKIGVFLDYECGTISFFNINDQSLIYTLTCRFEGLLRPYIEYPSYNEQNGTPIVICPVTQESEKEASWQRASAIPETSNSESSSQATTPFLPRGEM
notes: whole, on cells; also called B7NL8
Take B1: in assay [3], the binding result is on record as “no binding”.

B2: antibody 253: agonistic anti-BTN2A1 antibody; VL SEQ ID NO: 148, VH SEQ ID NO: 152 (antibody, V domains shown)
VH: EVQLLESGGGLVQPGGSLRLSCAASGFTFSTYDMYWVRQAPGKGLEWVSYISPSGGLTTYADSVKGRFTISRDNSKNTLYLQMNSLRAEDTAVYYCARDHYDSSGRATNYYYYMDVWGKGTTVTVSS
VL: QSALTQPPSASGTPGQRVTLSCSGSSSNIGSNRVNWYQQLPGTAPKLLIDSNNQRPSGVPDRFSGSKSGTSASLAISGLRSEDEVFYYCAAWDDSVHGPVFGGGTMVTVL
modifications: amino acid sequence of the VH of antibody 253; amino acid sequence of the VL of antibody 253
In the case of B2, in assay [4], the “activation of Vγ9Vδ2 cells by CD25 upregulation” value is listed as “activation of Vγ9Vδ2 independent of phosphoantigen; also recorded: can mimic phosphoantigen mediated activation to various degrees”. Further, in assay [5], the “CD25 level of expression on γδ T cells in co-culture” value is “upregulated”. In assay [6], the “level of secreted interferon γ” value was “increase the level of secreted interferon γ” and the “percentage of γδ T cells expressing CD25” value is “increase the percentage of γδ T cells expressing CD25”. The “cytokine/chemokine secretion, in words” value in assay [7] (across both donors) is “weaker stimulus”. Besides, the “cytokine/chemokine secretion, in words” value in assay [7] (cancer patient derived Vγ9Vδ2 cells, vs isotype (BM4)) is listed as “No increase in any analyte”. Moreover, in assay [7] (healthy donor derived Vγ9Vδ2 cells, vs isotype (BM4)), the “cytokine/chemokine secretion, in words” value is “only small increases in the amounts of secreted GMCSF”. In assay [7] (setting [9]), this molecule registered an ICAM-1 of 0.1 pg/mL, an IFNγ of 0.1 pg/mL, an IL-4 of 0.1 pg/mL and an IL-8 of 0.1 pg/mL. Further, in assay [7] (setting [9]), the IL-13 was 0.1 pg/mL, the IL-17A was 0.1 pg/mL, the TNFα was determined as 0.1 pg/mL and the sE-selectin stood at 0.1 pg/mL. In assay [7] (setting [9]), this molecule had a sP-Selectin of 0.1 pg/mL. Also, in assay [7] (setting [10]), the MIP-1a is 16.32 pg/mL and 19.57 pg/mL; the MIP-1b was 117.31 pg/mL and 143.67 pg/mL. In assay [7] (setting [11]), this molecule displayed an IL-4 of 0.1 pg/mL, an IL-8 of 0.1 pg/mL, an IL-17A of 0.1 pg/mL and a TNFα of 0.1 pg/mL. This molecule had a sP-Selectin in assay [7] (setting [11]) of 0.1 pg/mL. In assay [7] (setting [12]), the GMCSF is 32.02 pg/mL and 33.23 pg/mL; the ICAM-1 is 480.81 pg/mL and 405.75 pg/mL; the IFNγ is 6.87 pg/mL and 3.45 pg/mL; the IL-13 was 45.16 pg/mL and 36.92 pg/mL. For the same molecule, in assay [7] (setting [12]), the MIP-1a was 133.36 pg/mL and 137.25 pg/mL; the MIP-1b is 901.33 pg/mL and 941.65 pg/mL; the sE-selectin was 142.97 pg/mL and 101.78 pg/mL.

B3: anti-BTN2A1 antibody 259 (antibody, V domains shown)
VH: EVQLLESGGGLVQPGGSLRLSCAASGFTFSSYAMQWVRQAPGKGLEWVSRIGPSGGGTMYADSVKGRFTISRDNSKNTLYLQMNSLRAEDMAVYYCARDLGGLSVLFDYWGQGTLVTVSS
VL: QSELTQPPSASETPGQRVTISCSGSSSNIGSNTVSWFQQLPGSAPRLLIYNDHRRPSGVPDRFSGSKSGTSASLVISGLQSQDEADYYCSAWDDSLNGVVFGGGTKLTVL
Turning to B3, the binding result in assay [8] is “no binding”.

Broadly, the Kd is a measure of binding affinity in units of concentration. Low readings indicate higher affinity, high ones lower affinity.

Source of the values: patent publication US20220273713A1, “METHOD OF INHIBITING OR ACTIVATING GAMMA DELTA T CELLS” (The University of Melbourne, priority 2019, published 2022).
